Source: the DeepSol protein solubility set

Test: soluble on expression in E. coli; label from the status in PepcDB or PDB records

Sequence | soluble on expression in E. coli
HGPAPLDLDKYVEIARLCKYLPENDLKRLCDYVCDLLLEESNVQPVSTPVTVCGDIHGQFYDLCELFRTGGQVPDTNYIFMGDFVDRGYYSLETFTYLLALKAKWPDRITLLRGNHESRQITQVYGFYDECQTKYGNANAWRYCTKVFDMLTVAALIDEQILCVHGGLSPDIKTLDQIRTIERNQEIPHKGAFCDLVWSDPEDVDTWAISPRGAGWLFGAKVTNEFVHINNLKLICRAHQLVHEGYKFMFDEKLVTVWSAPNYCYRCGNIASIMVFKDVNTREPKLFRAVPDSVRASSPSPL | soluble
MEEKWCNYLLNEGRDWKTMNKTILKTCIISAVLGGVLLTEKNGEVKAEEITPQTNHTGVFKDVPKGHWAYEAIQQLTDEKIVFGYDDGRFGFGDNVTREQVAALLYRYFNLAEEKNYENPYGDVSEESTSYIKEILSLTEMGVFKGDEHGNFRPKASLTRAEMAQVLTNAFHLKAKSNHTFNDVSTNSWASNAISAVQTNNIAKGVGGGNFAPNMDVTREQYAQFLYNAIQETEKTQETKGQLLASILGETNWQGTKVYDKDHNDVTKENQNFIGLAKYDAKTARYEFFNASTGESRNDSGTFFITNDGKKRVLISETQNYQAVVELTQLDKEKFTYKRMGKDAKRNDVEVFVEHIPYQEKELSFTRPDKNLESSTGKIVTDVDGDKILSSTLWNGTVVLDEQGNNVTKYNSNLISLAKYDKNTNKYEFFNVNTGESRGDYGFFDVVHDNKIRAHVSLGNNKYGAVLELTELNKEKFTYTRMGKDANGKDIKIFVEHEPNTGDLKPNFTK | not soluble
MSLKTFIKIILLYLMPILAFATELRPGDRLQIKFPGESAFEKSFQLDHDGKISLPEIGTVKLQGMSLLQARTVLTGKLSNAYKDLSKFDLFLKERRLTVTVLGYVKEPGPVDMPIRANVQMAINSAGGLAQGAQLDKLQIRRSSGIIEFDYKHYLDSGDPSSLPKLEPMDVIFIPASPLIGNVQVEFDARTLTASGDAGEDGEAIKVFGEVHRPGTFAFKEDASVMDMIMRAGGVTRYAGIEQIRVIHQGQPYPFDMREYLDTGNPDLMPKIHQGDVIFIPQATEQVKSGSRTVYVMGEVFKPGAMEMGEGSGFYDLLATAGGPTRFAETRQIRIIRADGKVQPFDLQGYVDSQGRTKLPSIQPGDAILVPEKTDMNEKSWLKVHPNRAVRIIGAVNRPGRYEWASEMTLMDLIAHAGGPIASADTAHLQILQQRKNGNTESVSFDLKSFLDEGHHHHHH | not soluble
MRVQILKDFVKQHFPATPLLDYALEVEKITTSKKPNLILNVDGFIGVAFVDMLRNCGSFTREEADEYVDIGALNGIFVLGRSMGFIGHYLDQKRLKQGLYRHPWDDISYVLPEHMSM | not soluble
MDRNPSEPERIDWKNPITWISYLYTSFVYYLWLISSHLPHLPQPQRITDDKSTEQITRDAGIPRTEIVTRGDATQTVRQVAGLGDPAPKDSSLLPPSSSFVYCNNCLTPHSSQRTCSPAYVSTLSRQKSLTLLKKLKKPSSSASSTTTTTSSTVSFRAPSRASSTISDASTIRPSELIAIVPSGSHVLLRVPKLDWKTESIRIKRTRMSDWMDAEQRDVMRQFDEVIRSEEEDERTSRKRNGIFKDGSVRSIESLESRSRSKETPVFVPPPPPPTDAMPYLPRLAELNKGTPDQEFGFNLHAERGRGHFIGTVDAGGIGEKAGLEAGQRIVGVNGQLIYPTTGHKEVVALIKKDTMKTTLLVASEDVDKYHKDHNIAYSWDNVERVDTRPVINVETHHHHEEVSVPKSNGYDVPPLNPHSIQVNEEREISKMTTTTRTETITNSNSAYQYKESSTAYDAYATPPVDSNDLMDEVFGRVNLPGVTMSSHTEVLPPTDDISSVSSLSSHRESAVDVPVSHQYVPSYATESHQKHEQHSQTHHHHHQHQQPSPLSNGSSHGYAASSTSGYDDDDIYHLSAREARERLRMKNRKHHLHEMSLNEKYQLVSNM | not soluble
MNLHTKTWVQRLPVPIDVAWDFFSQPGNLARITPPEMMLKAEGGNAGTAIYEGMKLNFVLYPFMMIPVRWTTEIMKVSKPDFFEDRQLSGPYEQWYHRHLFRDIEGGTEMTDIVEYALPFDLFGEVVEALIVGPRLDEVFEYRRCRVAEILGEMASETRLEHHHHHH | soluble
